We go through eight molecules from patent US12365732 (23ANDME, dated 2025).

For experiment [1], the target named is T1, hu-CD96 isoform 1 on HEK293T cells (human, UniProt P40200 22-585).
T1 construct: Origene RC213845, transient expression; also called HEK293T-CD96 (iso1)
T1 sequence: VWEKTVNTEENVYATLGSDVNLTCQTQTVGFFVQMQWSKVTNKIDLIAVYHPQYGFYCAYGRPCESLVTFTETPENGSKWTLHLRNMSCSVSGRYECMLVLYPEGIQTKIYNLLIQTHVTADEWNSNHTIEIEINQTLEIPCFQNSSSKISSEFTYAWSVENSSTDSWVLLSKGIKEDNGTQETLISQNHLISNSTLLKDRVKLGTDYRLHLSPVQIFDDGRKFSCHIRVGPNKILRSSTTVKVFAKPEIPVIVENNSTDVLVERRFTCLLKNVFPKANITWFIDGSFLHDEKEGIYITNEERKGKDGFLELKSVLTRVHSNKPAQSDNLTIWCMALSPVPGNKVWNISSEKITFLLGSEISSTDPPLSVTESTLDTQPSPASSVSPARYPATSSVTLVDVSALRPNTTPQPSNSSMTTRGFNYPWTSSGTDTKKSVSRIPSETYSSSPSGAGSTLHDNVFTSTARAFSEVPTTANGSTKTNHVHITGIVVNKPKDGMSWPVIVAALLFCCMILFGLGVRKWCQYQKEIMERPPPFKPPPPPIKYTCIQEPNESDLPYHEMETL
The experiment is described as follows: FACS, Ab 0.016 nM. The protocol:
(§1) Isoform 1 of hu-CD96 (Origene, catalog #RC213845) was transiently expressed in HEK293T cells following standard lipofectamine or Fugene transfection protocol. […] Cells were washed, and binding was detected by incubation with anti-mouse IgG-FITC (Biolegend, catalog #406001) for 20 minutes at 4° C. Cell binding was analyzed by flow cytometry with a CytoFLEX (Beckman Coulter). Binding curves were calculated as a percentage of cells positive for bound antibody.
For orientation: A flow cytometer gives signals particle by particle.

Experiment [2] has as its target T1, hu-CD96 isoform 1 on HEK293T cells. Briefly: FACS, Ab 0.4 nM. On the procedure:
as §1

For experiment [3], the target named is T2, cynomolgus monkey CD96 on cynomolgus monkey PBMCs (cynomolgus monkey, UniProt A0A2K5TWV6 22-569).
T2 construct: whole, on cells
T2 sequence: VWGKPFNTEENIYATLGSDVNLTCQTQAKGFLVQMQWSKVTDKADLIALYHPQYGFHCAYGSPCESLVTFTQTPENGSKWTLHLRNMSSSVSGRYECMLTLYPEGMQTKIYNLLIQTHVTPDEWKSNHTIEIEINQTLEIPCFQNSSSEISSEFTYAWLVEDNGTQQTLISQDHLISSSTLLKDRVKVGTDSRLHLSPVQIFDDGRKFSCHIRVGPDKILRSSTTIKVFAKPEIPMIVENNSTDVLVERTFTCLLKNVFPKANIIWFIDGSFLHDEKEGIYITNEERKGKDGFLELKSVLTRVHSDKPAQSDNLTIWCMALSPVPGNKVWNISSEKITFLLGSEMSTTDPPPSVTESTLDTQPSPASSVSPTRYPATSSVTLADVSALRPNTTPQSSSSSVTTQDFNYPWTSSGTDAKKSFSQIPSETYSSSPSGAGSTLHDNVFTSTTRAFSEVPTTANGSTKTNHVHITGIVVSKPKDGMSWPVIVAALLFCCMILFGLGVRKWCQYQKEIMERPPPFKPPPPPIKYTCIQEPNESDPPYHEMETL
The experiment is described as follows: FACS, Ab 0.128 nM. On the procedure: The ability of the anti-CD96 antibodies to bind primary immune cells from human and cynomolgus monkey with lower level of receptor expression was measured. Human PBMCs (StemCell Technologies, catalog #70025) and cynomolgus monkey PBMCs (Primate Biologicals, catalog #CM-MC) were incubated with human TruStain FcX (Biolegend, catalog #422302) for 10 minutes at 4° C., followed by incubation with an anti-CD96 antibody for 20 minutes at 4° C. Cells were washed and the anti-CD96 antibody binding was detected by incubation with anti-mouse IgG-PE (Thermo Fisher, catalog #M30204) or anti-human IgG (Fab) 2-PE (Thermo Fisher, catalog #H10104) for 20 minutes at 4° C. Cells were washed, and immune subtypes were labeled with anti-CD3 (BD, catalog #557705), anti-CD4 (Biolegend, catalog #317424) and anti-CD8 (BD, catalog #557760) for 20 minutes at 4° C. Cell binding was analyzed by flow cytometry with a CytoFLEX (Beckman Coulter). Binding curves were calculated as a percentage of cells positive for bound antibody in the cell type of interest.

The target in experiment [4] is T3, hu-CD96 isoform 2 on CHO cells (human, UniProt P40200 22-585).
T3 construct: also called CHO-CD96 (isoform 2); CD96-CHOs
T3 sequence: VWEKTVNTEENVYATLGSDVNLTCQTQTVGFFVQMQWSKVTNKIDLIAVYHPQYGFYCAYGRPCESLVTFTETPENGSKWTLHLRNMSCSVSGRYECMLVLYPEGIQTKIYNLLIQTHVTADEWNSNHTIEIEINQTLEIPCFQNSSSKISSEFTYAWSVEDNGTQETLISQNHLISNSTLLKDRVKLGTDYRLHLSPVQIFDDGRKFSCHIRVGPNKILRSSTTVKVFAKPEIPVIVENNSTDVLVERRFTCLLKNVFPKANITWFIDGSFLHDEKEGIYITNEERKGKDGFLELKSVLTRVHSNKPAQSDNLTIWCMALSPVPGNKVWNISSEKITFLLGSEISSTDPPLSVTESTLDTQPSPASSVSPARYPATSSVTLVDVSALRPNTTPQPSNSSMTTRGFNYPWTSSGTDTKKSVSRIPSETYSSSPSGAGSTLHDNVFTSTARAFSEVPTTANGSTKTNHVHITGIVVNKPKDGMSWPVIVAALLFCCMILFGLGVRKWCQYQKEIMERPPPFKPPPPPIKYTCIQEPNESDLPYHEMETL
The experiment is described as follows: FACS, blocks 10 nM CD155-Fc-FLAG binding to CD96-CHO. On the procedure:
CHO cells stably expressing isoform 2 of hu-CD96 (Origene, catalog #RC221005) were incubated with anti-CD96 antibodies for 20 minutes at 4° C. The cells were washed, and then incubated with 10 nM human CD155-Fc-FLAG for 30 minutes at 4° C. Cells were washed, and then human CD155-Fc-FLAG binding was detected by incubation with anti-FLAG-APC (Columbia Biosciences, catalog #D3-1718-1MG) for 20 minutes at 4° C. Cell binding was analyzed by flow cytometry with a CytoFLEX (Beckman Coulter). CD155 binding is represented as median fluorescence intensity (MedFI).
As shown in Table 20 (below), the anti-CD96 antibodies, mAb1.v7.NGS8, mAb1.v7.NGS9, mAb1.v7.NGS10, mAb1.v7.NGS11, and h10G1 inhibited soluble hu-CD155 binding to CD96-expressing CHO cells dose-dependently and potently. The antibody NK92.39 (Fuchs et al., 2004; Biolegend catalog #338405) inhibited receptor binding similarly.

B1: mAb1.v7 IgG (humanized 12F8) (antibody, V domains shown)
VH: EVQLVQSGAEVKKPGASVKVSCKASGFTFTNNWMHWVRQAPGQGLEWIGMIHPNSGITNINEKFKNRVTMTTDTSTSTAYMELRSLRSEDTAVYYCRSDGTYEGYFDYWGQGTLVTVSS
VL: DIQLTQSPSSLSASVGDRVTITCKASQNVGTAIVWYQQKPGKAPKVLIYSASTRYTGVPSRFSGSGSGTDFTLTISSLQPEDFATYYCQQYSSSPLTFGQGTKVEIKG
notes: human IgG1 N297G
Take B1: the “% positive” value in experiment [1] was 0.5%; in experiment [2] it was 12.2%.

B2: mAb1.v7.NGS11 IgG (antibody, V domains shown)
VH: EVQLVQSGAEVKKPGASVKVSCKASGFTFTNNFMHWVRQAPGQGLEWIGFIHANSGITNINEKFKNRVTMTTDTSTSTAYMELRSLRSEDTAVYYCRSDGVYEGYFDYWGQGTLVTVSS
VL: DIQLTQSPSSLSASVGDRVTITCKASQNVGTAIVWYQQKPGKAPKVLIYSASTRYTGVPSRFSGSGSGTDFTLTISSLQPEDFATYYCQQYSSSPLTFGQGTKVEIKG
notes: human IgG1 N297G
Take B2: the “% positive” value in experiment [3] stood at 63.5%. Besides, the IC50 in experiment [4] worked out at 0.46 nM.

B3: mAb1.v7.NGS10 IgG (antibody, V domains shown)
VH: EVQLVQSGAEVKKPGASVKVSCKASGFTFTNNFMHWVRQAPGQGLEWIGFIHANSGITNINEKFKNRVTMTTDTSTSTAYMELRSLRSEDTAVYYCRSDGIYEGYFDYWGQGTLVTVSS
VL: DIQLTQSPSSLSASVGDRVTITCKASQNVGTAIVWYQQKPGKAPKVLIYSASTRYTGVPSRFSGSGSGTDFTLTISSLQPEDFATYYCQQYSSSPLTFGQGTKVEIKG
notes: human IgG1 N297G
B3: in experiment [3], the “% positive” value stood at 64.6%. In experiment [4], this molecule showed an IC50 of 0.57 nM.

B4: mAb1.v7.NGS9 IgG (antibody, V domains shown)
VH: EVQLVQSGAEVKKPGASVKVSCKASGFTFTNNFMHWVRQAPGQGLEWIGMIHANSGITNINEKFKNRVTMTTDTSTSTAYMELRSLRSEDTAVYYCRSDGVYEGYFDYWGQGTLVTVSS
VL: DIQLTQSPSSLSASVGDRVTITCKASQNVGTAIVWYQQKPGKAPKVLIYSASTRYTGVPSRFSGSGSGTDFTLTISSLQPEDFATYYCQQYSSSPLTFGQGTKVEIKG
notes: human IgG1 N297G
As for B4, the “% positive” value in experiment [3] turned out to be 49.4%. The IC50 in experiment [4] was determined as 0.91 nM.

B5: h10G1 IgG (humanized 10G1) (antibody, V domains shown)
VH: EIQLVQSGSELKKPGASVKVSCKASGYPFTTYGMSWVRQAPGQGLEWMGWINTDSGVPTYADDFKGRFVFSLDTSVSTAYLQISSLKAEDTAVYFCARNIYYGWGNFDYWGQGTLVTVSS
VL: EIVMTQSPDFQSVTPKEKVTITCRASQDIYRNLHWYQQKPDQTPKLLIKHASDSISGIPSRFSGSGSGTDFTLTINSLEAEDAAAYYCLQGYSMPYTFGGGTKVEIKG
notes: human IgG1 N297G
For B5, the “% positive” value in experiment [3] was found to be 38.2%. Moreover, the IC50 in experiment [4] is 0.06 nM.

B6: 10G1 (clone 10G1.3G8), purified hybridoma antibody (antibody, V domains shown)
VH: QIQLVQSGPELKKPGETVKISCKASGYPFTTYGMSWVKQAPGKGLKWMGWINTDSGVPTYADDFKGRFAFSLETSANTAYLQINSLKNEDAATYFCARNIYYGWGNFDYWGQGTILTVSS
VL: DILMTQSPTTLSVTPGETVSLSCRASQDIYRNLHWYQQKSQGTPRLLIKHASDSISGIPSRFTGSGSGTDFTLSINSVKPEDEGIYYCLQGYSMPYTFGGGTKLEIK
notes: murine hybridoma IgG
For B6, the results for the “% positive” value in experiment [1] and in experiment [2] were 4.4% and 34.6%, respectively.

B7: 7E5, purified hybridoma antibody (antibody, V domains shown)
VH: QVQLKESGPGLVAPSQSLSIICTVSGFSLTNYGIHWIRQPPGKGLEWLGIIWAGGSTNYNSALMSRLTISKDNSKSQVFLKMNSLQTNDTAIYYCARVSMMGFAYWGQGTLVTVSA
VL: QAVVTQESALTTSPGETVTLTCRSSTGAVTTSNYANWVQEKPDHLFTGLIGGTNNRAPGVPARFSGSLIGDKAALTITGAQTEDEAIYFCSLWYGSHWVFGGGTKLTVL
notes: murine hybridoma IgG
Turning to B7, the “% positive” value in experiment [1] was 1%; in experiment [2] it was 20.4%.

B8: 9H4, purified hybridoma antibody (antibody, V domains shown)
VH: EVQLLETGGGLVKSGGSLKLSCAASGFTFSDYYMYWVRQTPEKRLEWVAAISDDGTYTYYPDSVKGRFTISRDNANNYLYLQMSSLKSEDTAIYYCAKAGSYDYFDVWGAGTTVTVSS
VL: DIVLTQSPASLAVSLGQRAIISCKASQSVTFADTGLMHWYQQKPGQQPKLLIYRASNLEVGVPTRFSGSGSGTDFTLNIHPVEEEDVATYYCQQSREYPWTFGGGTKLEIK
notes: murine hybridoma IgG
For B8, the “% positive” value in experiment [1] is 0.5%; in experiment [2] it was 13.9%.

For orientation: IC50 means the concentration that inhibits the measured activity by half.
